According to PMC7431413, “Selective inhibition of STAT3 signaling using monobodies targeting the coiled-coil and N-terminal domains” (Nature Communications, 2020):
Where no end group is shown, it is not given here. [ ]: non-standard residue; d: D form. pY = N[C@@H](Cc1ccc(OP(=O)(O)O)cc1)C(=O)O

Target: T1, recombinant core fragment (CF) of STAT3 (human, UniProt P40763 127-722)
T1 construct: STAT3, human, core fragment (CC, DBD and SH2 domains), a.a; For the crystal the methods say 'TEV cleaved-MS3-6 and STAT3-CF'; it is not clear whether the tags of STAT3-CF were cut too; also called STAT3-CF; source: E. coli BL21 (DE3), pHBT vector, purified (Ni-NTA, SEC)
T1 sequence (P40763 127-722): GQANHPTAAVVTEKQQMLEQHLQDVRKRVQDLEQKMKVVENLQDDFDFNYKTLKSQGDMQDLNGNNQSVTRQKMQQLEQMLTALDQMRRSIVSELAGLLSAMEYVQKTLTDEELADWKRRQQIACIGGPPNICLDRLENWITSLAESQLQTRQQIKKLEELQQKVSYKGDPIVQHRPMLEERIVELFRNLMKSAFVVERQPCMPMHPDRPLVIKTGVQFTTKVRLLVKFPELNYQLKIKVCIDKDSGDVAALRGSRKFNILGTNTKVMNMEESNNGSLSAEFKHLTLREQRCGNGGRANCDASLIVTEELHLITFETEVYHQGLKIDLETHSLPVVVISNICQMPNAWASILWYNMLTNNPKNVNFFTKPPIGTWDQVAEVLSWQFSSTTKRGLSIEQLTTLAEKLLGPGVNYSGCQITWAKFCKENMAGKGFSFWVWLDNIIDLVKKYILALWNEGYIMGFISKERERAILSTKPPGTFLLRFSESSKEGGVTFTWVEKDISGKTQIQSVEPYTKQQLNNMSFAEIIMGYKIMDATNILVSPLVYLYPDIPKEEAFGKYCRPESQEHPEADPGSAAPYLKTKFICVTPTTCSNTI
Test: fluorescence polarisation; fluorescent gp130 pY-peptide and recombinant STAT3-CF (Supplementary Fig. 3a); TBS (50 mM Tris pH 7.5, 150 mM NaCl)
Details: both partners purified

B1: fluorescent pY-peptide encompassing the pY905 docking site of gp130 (peptide)
peptide: GMPKS[pY]LPQTVR-NH2
modifications: not fully specified (N-terminus)
notes: gp130, cytosolic tail around the Y905 docking site; also called gp130 pY-peptide; phospho-gp130 peptide; source: synthetic peptide
Kd: 930 nM
